We go through three molecules from patent publication US11666658B2, “Rifamycin analogs and antibody-drug conjugates thereof” (Regeneron Pharmaceuticals, Inc., priority 2018, dated 2023).

The target in test [1] is T1, Ac-LDL binding to His9-hMSR1 (Homo sapiens, UniProt P21757).
T1 construct: human MSR1 extracellular domain expressed with a N-terminal nonahistidine tag; purchased R&D Systems 2708-MS
T1 sequence (P21757 77-451 limits assumed): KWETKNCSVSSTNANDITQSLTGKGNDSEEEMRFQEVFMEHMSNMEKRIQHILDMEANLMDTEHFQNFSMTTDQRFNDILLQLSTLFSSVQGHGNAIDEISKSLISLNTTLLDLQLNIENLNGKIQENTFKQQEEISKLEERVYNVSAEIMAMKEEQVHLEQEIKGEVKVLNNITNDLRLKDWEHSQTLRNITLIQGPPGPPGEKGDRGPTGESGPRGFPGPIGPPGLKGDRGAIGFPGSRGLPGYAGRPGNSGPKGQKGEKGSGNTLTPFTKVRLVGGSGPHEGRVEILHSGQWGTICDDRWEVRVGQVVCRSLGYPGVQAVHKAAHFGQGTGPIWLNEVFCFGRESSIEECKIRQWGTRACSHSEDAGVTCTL
As to the kind of experiment: Competition sandwich ELISA, Ac-LDL. As to conditions: anti-MSR1 antibody 100 nM, 50 pM Ac-LDL. As for the experimental part: (§1) The ability of anti-MSR1 antibodies disclosed herein to block the binding of various ligands to human MSR1 was measured using three competition sandwich ELISA assays. The ligands used in the assays were: (1) acetylated LDL (Ac-LDL), (2) oxidized LDL (Ox-LDL), and (3) advanced glycation end-products of bovine serum albumin (AGE-BSA).
(§2) Anti-MSR1 antibodies or isotype control antibodies were serially diluted as appropriate for each tested ligand and added in duplicate for each serial dilution set to microtiter plates coated with His9-hMSR1. Buffer alone was also added to wells on each coat. […] This assay was conducted in four different assay runs.
(§3) Data analysis was performed using a sigmoidal dose-response model within Prism™ software (GraphPad). Percent blockade at maximum concentration of the antibody tested in each assay was calculated as an indicator of the ability of the antibodies to block the binding of Ac-LDL, Ox-LDL or biot-AGE-BSA to His9-hMSR1 on the plate relative to the baseline of the assay. In the calculation, binding signal of the same concentrations of Ac-LDL, Ox-LDL, or biot-AGE-BSA used for the assays in the absence of antibody was referenced as 100% binding or 0% blocking, while the baseline of the assay, defined as binding signal of the sample of buffer without MSR1 ligands or antibody, was referenced as 0% binding or 100% blocking. The maximum percent blockade at the highest concentration of antibody tested in each assay are reported for all antibodies.

For test [2], the target named is T2, Ox-LDL binding to His9-hMSR1 (Homo sapiens, UniProt P21757).
T2 construct: human MSR1 extracellular domain expressed with a N-terminal nonahistidine tag; purchased R&D Systems 2708-MS
T2 sequence (P21757 77-451 limits assumed): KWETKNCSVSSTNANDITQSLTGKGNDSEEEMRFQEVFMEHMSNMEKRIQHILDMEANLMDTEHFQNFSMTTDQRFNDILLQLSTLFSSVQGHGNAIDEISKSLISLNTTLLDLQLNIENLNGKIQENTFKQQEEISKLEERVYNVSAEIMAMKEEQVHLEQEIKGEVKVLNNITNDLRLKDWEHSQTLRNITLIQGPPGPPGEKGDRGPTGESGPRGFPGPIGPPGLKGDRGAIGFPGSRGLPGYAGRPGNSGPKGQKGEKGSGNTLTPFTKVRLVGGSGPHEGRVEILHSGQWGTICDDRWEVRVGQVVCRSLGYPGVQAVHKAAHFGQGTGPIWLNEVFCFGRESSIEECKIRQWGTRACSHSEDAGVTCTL
Nature of the test: Competition sandwich ELISA, Ox-LDL. To be noted: anti-MSR1 antibody 500 nM, Ox-LDL 10 nM. As for the experimental part: as §1, §2, §3
For orientation: ELISA stands for enzyme-linked immunosorbent assay.

The next test addresses T3, His9-hMSR1 (Homo sapiens, UniProt P21757).
T3 construct: human MSR1 extracellular domain expressed with a N-terminal nonahistidine tag; purchased R&D Systems 2708-MS
T3 sequence (P21757 77-451 limits assumed): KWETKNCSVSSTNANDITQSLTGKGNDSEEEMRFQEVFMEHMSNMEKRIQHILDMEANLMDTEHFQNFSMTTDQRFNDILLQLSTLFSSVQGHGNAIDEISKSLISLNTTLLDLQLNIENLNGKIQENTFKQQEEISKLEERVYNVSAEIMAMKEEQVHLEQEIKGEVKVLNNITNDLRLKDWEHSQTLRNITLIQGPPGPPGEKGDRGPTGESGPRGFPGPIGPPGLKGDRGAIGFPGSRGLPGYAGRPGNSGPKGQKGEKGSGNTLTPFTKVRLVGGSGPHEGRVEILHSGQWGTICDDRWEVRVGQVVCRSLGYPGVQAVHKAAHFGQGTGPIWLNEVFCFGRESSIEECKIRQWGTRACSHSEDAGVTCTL
Nature of the test: Cross-competition between anti-MSR1 antibodies (OCTET bio-layer interferometry). It counts as binding. To be noted: label = first mAb (mAb-1) on His9-hMSR1 captured with anti-Penta-His Octet biosensors; value = competing mAb-2. As for the experimental part: Binding competition between different anti-MSR1 antibodies was assessed using a real time, label-free bio-layer interferometry assay on an OCTET® HTX biosensor platform (Pall FortéBio Corp., Menlo Park, Calif.). The experiment was performed at 25° C. in 10 mM HEPES, 150 mM NaCl, 3 mM EDTA, 0.05% v/v Surfactant Tween-20, and 1 mg/mL BSA, pH 7.4 (HBS-EBT) buffer with the plate shaking at the speed of 1000 rpm.
To assess whether different antibodies are able to compete with one another for binding to their respective epitopes on the recombinant human MSR1 extracellular domain expressed with a N-terminal nonahistidine tag (SEQ ID NO: 688) (His9-hMSR1; R&D Systems, Cat #2708-MS), around […] of His9-hMSR1 was first captured onto anti-Penta-His antibody coated OCTET® biosensor tips (“Penta-His” disclosed as SEQ ID NO: 690) (Pall FortéBio Corp., #18-5122) by submerging the biosensor tips for 45 seconds into wells containing a […] solution of His9-hMSR1. The antigen-captured biosensor tips were then saturated with a first anti-MSR1 monoclonal antibody (subsequently referred to as “mAb-1”) by immersion into wells containing a […] solution of mAb-1 for 4 minutes. The biosensor tips were then submerged into wells containing a […] solution of a second anti-MSR1 monoclonal antibody (subsequently referred to as “mAb-2”) for 4 minutes. All of the biosensor tips were washed in HBS-EBT buffer in between each step of the experiment. The real-time binding response was monitored during the course of the experiment and the binding response at the end of each step was recorded. […] Table 17 explicitly defines the relationships of antibodies competing in both directions, independent of the order of binding.
On the technique in general: BLI is a label-free optical method that tracks binding on a fibre tip over time.

Test [3] has as its target T4, biot-AGE-BSA binding to His9-hMSR1 (Homo sapiens, UniProt P21757).
T4 construct: human MSR1 extracellular domain expressed with a N-terminal nonahistidine tag; purchased R&D Systems 2708-MS
T4 sequence (P21757 77-451 limits assumed): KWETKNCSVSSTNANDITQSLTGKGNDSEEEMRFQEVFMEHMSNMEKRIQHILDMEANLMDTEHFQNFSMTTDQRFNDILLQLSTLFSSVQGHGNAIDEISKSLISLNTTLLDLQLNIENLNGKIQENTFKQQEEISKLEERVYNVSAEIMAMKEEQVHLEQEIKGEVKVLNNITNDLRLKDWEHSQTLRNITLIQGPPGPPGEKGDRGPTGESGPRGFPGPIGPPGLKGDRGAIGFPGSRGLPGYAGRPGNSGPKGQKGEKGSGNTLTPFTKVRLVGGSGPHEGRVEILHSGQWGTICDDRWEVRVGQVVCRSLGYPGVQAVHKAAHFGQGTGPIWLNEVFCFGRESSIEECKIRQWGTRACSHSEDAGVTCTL
Nature of the test: Competition sandwich ELISA, biot-AGE-BSA. As to conditions: anti-MSR1 antibody 300 nM, 400 pM biot-AGE-BSA. As for the experimental part:
as §1
For the assay, recombinant monomeric human MSR1 protein comprised of a portion of the human MSR1 extracellular domain expressed with a N-terminal 9-Histidine tag (SEQ ID NO: 688) (His9-hMSR1; R&D Systems, Cat #2708-MS) was coated at a concentration of […] in PBS on a 96-well microtiter plate overnight at 4° C. for use in competition ELISA assays with Ac-LDL, Ox-LDL, or biotinylated-AGE-BSA (“biot-AGE-BSA”). […] Anti-MSR1 antibodies or isotype control antibodies were serially diluted as appropriate for each tested ligand and added in duplicate for each serial dilution set to microtiter plates coated with His9-hMSR1. Buffer alone was also added to wells on each coat. After 1 hour incubation at room temperature, without wash, a final constant concentration of 50 pM Ac-LDL (Life Technologies/ThermoFisher Scientific, Cat #L-35354), 5 nM or 10 nM Ox-LDL (Alfa Aesar, Cat #J65591), or 400 pM biot-AGE-BSA (R&D Systems, Cat #BT4127) were added to plates with His9-hMSR1, and the plates were incubated for an additional 1 hour at room temperature. (Concentrations of Ac-LDL, Ox-LDL and biot-AGE-BSA for antibody inhibition assays were selected from the approximate midway point within the linear portion of individual binding curves of Ac-LDL, Ox-LDL or biot-AGE-BSA to plate-coated His9-hMSR1.) Wells were washed, and plate-bound Ac-LDL or Ox-LDL were detected with anti-LDL rabbit antibody (Alfa Aesar, Cat #J64398) in combination with anti-rabbit IgG (H+L) specific donkey polyclonal antibodies conjugated with horseradish peroxidase (HRP) (JacksonImmunoResearch, Cat #711-035-152) and biot-AGE-BSA was detected with a streptavidin-HRP (ThermoFisher Scientific, Cat #N200). Plates were developed using TMB substrate solution (BD Biosciences, Cat #51-2606KC & Cat #51-2607KC) according to manufacturer's recommendation and absorbance at 450 nm was measured on a Victor™ Multilabel Plate Reader (PerkinElmer™). This assay was conducted in four different assay runs.
as §3, with “antibodies. Negative percent blockade numbers reflected higher MSR1 ligands binding to plate coated His9-hMSR1 in the presence of antibodies.” for “antibodies.”

B1: H1H21227N-N297Q: "modified versions of 21227N (H1H21227N-N297Q and H1H21227N-N297D)"; anti-MSR1 antibody "with a N297Q single point mutation" (antibody, V domains shown)
VH: QVQLVQSGAEVKKPGASVKVSCKVSGYTLTELSIHWVRQVPGKGLEWMGGFDPEEGETIFAQEFRDRVTLTEDTSPDTAYMELSSLKSEDAAVYYCTTPRYCNNGICYDYWGQGTLVTVSS
VL: DIQMTQSPSSLSASVGDRVTITCRASQSISNYLNWYQQKPGKAPKLLIYTASSLQSGVPSRFSGSGSGTDFTLTISSLQTEDFATYYCQQSYSNFPITFGQGTRLEIKR
Turning to B1, the “% Blocking of Ac-LDL binding to His9-hMSR1” value (“% Blocking of Ac-LDL binding” for short) in test [1] came out at 105%. Moreover, the “% Blocking of Ox-LDL binding to His9-hMSR1” value (“% Blocking of Ox-LDL binding” for short) in test [2] was found to be 97%. Moreover, the “mAb-2 antibodies which Compete with mAb-1” value in the test with His9-hMSR1 is “Data Inconclusive**”. In addition, the “% Blocking of biot-AGE-BSA binding to His9-hMSR1” value in test [3] came to 96%.

B2: H1H21227N: "Three anti-MSR1 antibodies ... (21227N, 21231N, 21234N) were produced with the original human Fcγ portion" (antibody, V domains shown)
VH: QVQLVQSGAEVKKPGASVKVSCKVSGYTLTELSIHWVRQVPGKGLEWMGGFDPEEGETIFAQEFRDRVTLTEDTSPDTAYMELSSLKSEDAAVYYCTTPRYCNNGICYDYWGQGTLVTVSS
VL: DIQMTQSPSSLSASVGDRVTITCRASQSISNYLNWYQQKPGKAPKLLIYTASSLQSGVPSRFSGSGSGTDFTLTISSLQTEDFATYYCQQSYSNFPITFGQGTRLEIKR
Regarding B2, the “% Blocking of Ac-LDL binding” value in test [1] is on record as 105%. For the same molecule, in test [2], the “% Blocking of Ox-LDL binding” value came to 100%. For the same molecule, in the test with His9-hMSR1, the “mAb-2 antibodies which Compete with mAb-1” value is “Data Inconclusive**”. The “% Blocking of biot-AGE-BSA binding to His9-hMSR1” value in test [3] came to 99%.

B3: H1H21231N: "Three anti-MSR1 antibodies ... (21227N, 21231N, 21234N) were produced with the original human Fcγ portion" (antibody, V domains shown)
VH: EVQLVESGGGLVQPGGSLRLSCAASGFTFSDHYMDWVRQAPGKGLEWVGRTRNKANSHTTEYTASVTGRFTISRDDSRNSLYLQMNSLKTEDTAVYYCVRAGIIGTLFDYWGQGTLVTVSS
VL: DIQMTQFPSSLSASVGDRVTITCRASQSISSFLNWFQQKPGKAPKFLIYAASSLQSGVPSRFSGSGSGTDFTLTISSLQPEDFATYYCQQSYSSPPITFGQGTRLEIKR
Consider B3, for which, in test [1], the “% Blocking of Ac-LDL binding” value is −62%. Further, in test [2], the “% Blocking of Ox-LDL binding” value is given as 22%. Further, in test [3], the “% Blocking of biot-AGE-BSA binding to His9-hMSR1” value is on record as −44%.
